Where no end group is shown, it is not given here.
T1: human Y1 receptor (human, UniProt P25929 1-384)
T1 sequence (looked up): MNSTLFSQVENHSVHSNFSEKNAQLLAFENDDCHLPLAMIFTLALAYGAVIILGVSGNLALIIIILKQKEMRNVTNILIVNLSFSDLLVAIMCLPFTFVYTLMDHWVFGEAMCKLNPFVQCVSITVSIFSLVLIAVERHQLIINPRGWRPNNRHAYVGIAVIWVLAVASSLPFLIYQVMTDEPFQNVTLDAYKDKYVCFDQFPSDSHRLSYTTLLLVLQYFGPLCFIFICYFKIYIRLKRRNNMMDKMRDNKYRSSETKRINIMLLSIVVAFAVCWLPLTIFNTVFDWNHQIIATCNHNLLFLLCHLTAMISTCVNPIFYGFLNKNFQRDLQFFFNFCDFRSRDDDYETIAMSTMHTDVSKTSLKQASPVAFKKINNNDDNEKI

T2: human Y2 receptor (human, UniProt P49146 1-381)
T2 sequence (looked up): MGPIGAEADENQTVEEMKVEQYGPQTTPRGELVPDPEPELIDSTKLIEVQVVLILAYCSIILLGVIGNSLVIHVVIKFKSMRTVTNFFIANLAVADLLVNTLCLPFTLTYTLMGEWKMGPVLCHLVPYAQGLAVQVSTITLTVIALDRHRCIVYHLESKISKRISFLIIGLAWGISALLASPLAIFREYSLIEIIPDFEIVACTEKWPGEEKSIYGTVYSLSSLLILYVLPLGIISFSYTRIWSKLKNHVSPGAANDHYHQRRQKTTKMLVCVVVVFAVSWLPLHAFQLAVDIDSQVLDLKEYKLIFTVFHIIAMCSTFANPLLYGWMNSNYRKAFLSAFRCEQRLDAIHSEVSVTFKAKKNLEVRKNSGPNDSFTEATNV


Assays:
Assay in all cases: cell-based or functional assay
human Y4 receptor = human Y4 receptor (human, UniProt P50391 1-375)
human Y1 receptor = target: T1, human Y1 receptor
human Y2 receptor = target: T2, human Y2 receptor

Sequence of human Y4 receptor (P50391 whole entry): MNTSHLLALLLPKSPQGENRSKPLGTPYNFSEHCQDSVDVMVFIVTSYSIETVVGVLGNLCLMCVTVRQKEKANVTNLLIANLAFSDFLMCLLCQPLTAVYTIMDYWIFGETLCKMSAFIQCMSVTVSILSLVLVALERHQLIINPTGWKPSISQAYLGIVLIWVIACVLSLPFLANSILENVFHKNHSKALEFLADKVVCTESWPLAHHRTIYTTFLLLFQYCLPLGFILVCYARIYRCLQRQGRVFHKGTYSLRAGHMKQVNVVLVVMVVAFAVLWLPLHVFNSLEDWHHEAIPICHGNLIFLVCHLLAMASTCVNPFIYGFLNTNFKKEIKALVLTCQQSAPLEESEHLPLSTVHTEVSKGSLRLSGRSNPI

Row | Binder | EC50, inositol phosphate turnover in transfected COS-7 cells (hY4 potency assay) (human Y4 receptor) [nM] | EC50, inositol phosphate turnover in transfected COS-7 cells (hY1 potency assay) (human Y1 receptor) [nM] | EC50, inositol phosphate turnover in transfected COS-7 cells (hY2 potency assay) (human Y2 receptor) [nM]
1 | PLEPVYPGDNATPEQMAQYAADLRRYINNLTRPRY-NH2 [[Asn30]PP2-36] | 3.05 | > 1000 | > 1000
2 | PLEPVYPGDNATPEQMAQYAADLRRYINTLTRPRY-NH2 [[Thr30]PP2-36] | 1.07 | > 1000 | > 1000
3 | PLEPVYPGENATPEQMAQYAADLRRYINMLTRPRY-NH2 [[Glu10]PP2-36] | 0.91 | 564 | > 1000
4 | PLEPVYPGDNATPEQMAQYAADLRRYINALTRPRY-NH2 [[Ala30]PP2-36] | 1.04 | > 1000 | > 1000
5 | PLEPVYPGDNATPEQMAQYAADLRRYINQLTRPRY-NH2 [[Gln30]PP2-36] | 0.99 | > 1000 | > 1000
6 | PLEPVYPGENATPEQLAQYAADLRRYINTLTRPRY-NH2 [[Glu10, Leu17, Thr30]PP2-36] | 1.07 | > 1000 | > 1000
